Patent US20020065226A1
Non-standard residues stand in square brackets, D forms with d. pGlu = O=C1CC[C@@H](C(=O)O)N1; azaGly = NNC(=O)O

Columns and labels:
[1] = biological target: chorionic peptidase-1 (C-ase-1) (human); assay: competitive inhibition of C-ase-1 degradation of GnRH (competitor)
[2] = biological target: chorionic peptidase-1 (C-ase-1) (human); assay: inhibition of C-ase-1 degradation of GnRH (competitor)
[3] = biological target: chorionic peptidase-1 (C-ase-1) (human); assay: competitive inhibition of C-ase-1 degradation of GnRH
[4] = biological target: chorionic peptidase-1 (C-ase-1) (human); assay: cell-based or functional assay
[5] = biological target: human placental GnRH receptor (human) (UniProt P30968); assay: competitive radioreceptor assay on human term placental membranes, radiolabeled Buserelin as competitor
[6] = biological target: chorionic peptidase-1 (C-ase-1) (human); assay: competitive inhibition of C-ase-1 degradation of mammalian GnRH (competitor)
[7] = biological target: human placental GnRH receptor (human) (UniProt P30968); assay: competitive radioreceptor assay, human term placental GnRH receptors, 125I-Buserelin as competitor
[8] = biological target: baboon ovarian enzymatic activity that degrades GnRH; assay: degradation assay with baboon ovarian homogenate, double reciprocal plot
[9] = biological target: chorionic peptidase-1 (C-ase-1) (human); assay: C-ase-1 degradation assay, Lineweaver-Burke double reciprocal plot
[10] = biological target: baboon ovarian GnRH receptor (baboon); assay: radioreceptor assay, baboon ovary membrane fraction, radiolabeled D-Arg(6)-chicken II GnRH-aza-Gly(10)-amide
[11] = biological target: human placental GnRH receptor (human) (UniProt P30968); assay: homologous radioreceptor assay, placenta 2 membrane preparation, radiolabeled D-Arg(6)-chicken II GnRH-aza-Gly-amide as label
[12] = biological target: human placental GnRH receptor (human) (UniProt P30968); assay: competitive radioreceptor assay on human term placental membranes, radiolabeled Buserelin as competitor, double reciprocal plot
[13] = biological target: human placental GnRH receptor (human) (UniProt P30968); assay: homologous radioreceptor assay, average of three human term placental membrane preparations
[14] = biological target: baboon ovarian GnRH receptor (baboon); assay: radioligand binding, baboon ovary membrane fraction
[15] = biological target: human placental GnRH receptor (human) (UniProt P30968); assay: radioreceptor assay on human term placental membranes, radiolabeled D-Arg(6)-chicken II GnRH-aza-Gly-amide as label
[16] = biological target: baboon endometrium GnRH receptor (baboon); assay: receptor binding, baboon endometrium (stroma and epithelium)
[17] = biological target: human placental GnRH receptor (human) (UniProt P30968); assay: homologous radioreceptor assay on human term placental membranes, radiolabeled D-Arg-chicken II GnRH-aza-Gly-amide as label

In the case of “6D-Trp-GnRH-10 ethylamide (from UniProt P01148 24-32) (peptide)”, the Ki [1] is reported as 60 nM.

“9OH-Pro-GnRH (from UniProt P01148 24-92) (peptide)” was tested, and the relative potency compared to GnRH (relative potency) [2] was 1.5.

Antide (peptide) was tested, and the fold less potent than GnRH [3] was 3 fold, the fold more potent than salmon or chicken II GnRH [3] was 2 fold and the relative potency compared to GnRH (relative potency) [2] was 0.6. For the same molecule, the Ki [1] was 120 nM.

Molecule “Buserelin (from UniProt P01148 24-32) (peptide)” has a Ki [1] of 110 nM and a rate of degradation by C-ase-1 (fold of the rate for mammalian GnRH) [4] of 0.25.

Work on “D-Arg (6)-salmon GnRH-aza-Gly (10)-amide (peptide)” yielded a Ki [1] of 200 nM.

In the case of “Mammalian D-Trp (6) GnRH (from UniProt P01148 24-92) (peptide)”, the Ki [1] is reported as 20 nM.

With chicken I GnRH (peptide) the fold less potent than GnRH [3] was 3 fold, the fold more potent than salmon or chicken II GnRH [3] was 2 fold and the relative potency compared to GnRH (relative potency) [2] was 0.6. The Ki [1] was 80 nM.

For chicken II GnRH (peptide), the fold potency over mammalian GnRH [5] was 3 fold, the relative potency compared to GnRH (relative potency) [2] was 0.2 and the potency relative to mammalian GnRH [6] was 0.167 fold. It also gave a Ki [1] of 200 nM.

Molecule chicken II GnRH-ethylamide (peptide) has a fold less active than GnRH [3] of over 200 fold, a Kd [7] of 30 nM and a fold activity over GnRH [7] of 33 fold. For the same molecule, the Ki [1] was 130 nM.

With “des-Gly10, D-Leu6-GnRH-ethylamide (from UniProt P01148 24-92) (peptide)” the Ki [1] was 80 nM.

Molecule “des-Gly10-GnRH-ethylamide (from UniProt P01148 24-92) (peptide)” has a Ki [1] of 70 nM.

lamprey GnRH (peptide) showed a relative potency compared to GnRH (relative potency) [2] of 1.5 and a Ki [1] of 20 nM.

Work on “mammalian GnRH (from UniProt P01148 24-33) (peptide)” yielded a Ks [8] of 30 nM, a Ks [9] of 30 nM and a Ki [1] of 30 nM.

Molecule salmon GnRH (peptide) has a relative potency compared to GnRH (relative potency) [2] of 0.2 and a Ki [1] of 300 nM.

Molecule [pGlu]HWSH[dR]WYP[azaGly]-NH2 (also: also used radioiodinated as label) [D-Arg(6)-chicken II GnRH-aza-Gly(10)-amide] has a Kd [10] of 10 nM, a fold affinity over chicken II GnRH or Buserelin [5] of 2 fold and a fold affinity over mammalian GnRH [5] of 60 fold. The Kd [11] was 68 nM, the Kd [12] was 175 nM and the Kd [13] was 93 nM. The specific activity of binding, fold over placental membrane preparations [14] was 50 to 100 fold, the fold affinity over mammalian GnRH [15] was 25 fold and the Kd [16] was 60 nM. For the same molecule, the fold change of affinity against the assay with the Buserelin label [17] was 2 fold.
